Laboratory results published in article PMC7118729.

B1: rA16 (ssRNA)
RNA: AAAAAAAAAAAAAAAA
B2: rU16 (U16) (ssRNA)
RNA: UUUUUUUUUUUUUUUU

Biological target: Nsp15 endoribonuclease WT (SARS coronavirus, UniProt P0C6X7 6430-6775)

Binder	IC50	Ki
B1	53 nM	7.6 nM
B2	15 nM	2.3 nM
